The assay concerns the target recombinant CSN^ΔCSNAP complex (eight subunits, WT CSN5) (UniProt Q13098). The experiment in a line: native MS.

Take “CSNAP, recombinant subunit co-expressed in the CSN complex (natural protein)”: the stoichiometry N came out at 1.

The record behind these values is doi:10.1101/433532.
